# Starred links: 1 amine or outer side, 2 acyl side, 3 side chain; linkers in the order of their positions; H or OH if unused. Positions of bridges follow the written chain, without caps; N, C: chain ends. Non-standard residues stand in square brackets, D forms with d. Primed or numbered codes have the meaning given here. *: point of attachment. PyrS2″ = (S)-3-amino-1-((pent-4-en-1-yloxy)carbonyl)pyrrolidine-3-carboxylic acid (stapling residue), C=CCCCOC(=O)N1CC[C@@](N[*:1])(C(=O)[*:2])C1; B5(17) = 2,2-bis(4-pentenyl)glycine = 2-amino-2-(pent-4-en-1-yl)hept-6-enoic acid, stitching residue, C=CCCCC(CCCC=C)(N[*:1])C(=O)[*:2]; B5(18) = 2,2-bis(4-pentenyl)glycine (2-amino-2-(pent-4-en-1-yl)hept-6-enoic acid), stitching residue, C=CCCCC(CCCC=C)(N[*:1])C(=O)[*:2]; B5(4) = 2,2-bis(4-pentenyl)glycine = 2-amino-2-(pent-4-en-1-yl)hept-6-enoic acid (stitching residue), C=CCCCC(CCCC=C)(N[*:1])C(=O)[*:2]; B5(5) = 2,2-bis(4-pentenyl)glycine, 2-amino-2-(pent-4-en-1-yl)hept-6-enoic acid (stitching residue), C=CCCCC(CCCC=C)(N[*:1])C(=O)[*:2]; TfeGA = (S)-2-amino-3-((carboxymethyl)(2,2,2-trifluoroethyl)amino)propanoic acid, O=C([C@H](CN(CC(=O)[*:3])CC(F)(F)F)N[*:1])[*:2]; B5(3) = 2,2-bis(4-pentenyl)glycine (stitching residue), C=CCCCC(CCCC=C)(N[*:1])C(=O)[*:2]; Phe(3-COOH) = N[C@@H](Cc1cccc(C(=O)O)c1)C(=O)O; Phe(2-CF3) = N[C@@H](Cc1ccccc1C(F)(F)F)C(=O)O; Phe(2-Cl) = N[C@@H](Cc1ccccc1Cl)C(=O)O; Bta = N[C@@H](Cc1csc2ccccc12)C(=O)O; αAllylPro = C=CC[C@@]1(C(=O)O)CCCN1; tBuAla = CC(C)(C)C[C@H](N)C(=O)O; S8 = C=CCCCCCC[C@](C)(N)C(=O)O; Thr(ol) = C[C@@H](O)[C@H](N)CO; hSer = N[C@@H](CCO)C(=O)O; Abu = CC[C@H](N)C(=O)O; Alaol = C[C@@H](CO)N*; Aib = CC(C)(N)C(=O)O
# T1: beta-catenin in DLD1 TCF/LEF luciferase reporter cells (Homo sapiens (Human), UniProt P35222 1-781)
# T1 sequence: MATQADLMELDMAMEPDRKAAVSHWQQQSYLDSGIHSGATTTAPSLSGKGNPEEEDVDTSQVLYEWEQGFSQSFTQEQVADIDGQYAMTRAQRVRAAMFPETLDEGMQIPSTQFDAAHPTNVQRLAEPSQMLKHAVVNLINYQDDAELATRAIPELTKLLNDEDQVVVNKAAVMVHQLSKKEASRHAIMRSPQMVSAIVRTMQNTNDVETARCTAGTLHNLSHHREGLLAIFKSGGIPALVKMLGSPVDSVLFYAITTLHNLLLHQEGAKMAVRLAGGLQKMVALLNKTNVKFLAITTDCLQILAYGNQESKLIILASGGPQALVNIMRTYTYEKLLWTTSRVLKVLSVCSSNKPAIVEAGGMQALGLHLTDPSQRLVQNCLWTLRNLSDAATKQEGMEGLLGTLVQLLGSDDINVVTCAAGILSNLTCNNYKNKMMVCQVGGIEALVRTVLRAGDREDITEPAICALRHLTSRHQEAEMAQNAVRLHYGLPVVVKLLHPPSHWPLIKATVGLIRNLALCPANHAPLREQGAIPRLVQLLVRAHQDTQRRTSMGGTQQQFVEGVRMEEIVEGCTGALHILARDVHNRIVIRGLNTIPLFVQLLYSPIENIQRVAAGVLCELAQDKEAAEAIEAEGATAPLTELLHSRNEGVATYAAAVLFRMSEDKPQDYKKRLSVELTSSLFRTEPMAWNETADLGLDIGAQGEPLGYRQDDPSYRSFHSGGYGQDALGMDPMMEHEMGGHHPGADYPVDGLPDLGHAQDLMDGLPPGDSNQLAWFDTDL
# T2: B-cat-Halo (UniProt P35222 1-781, HaloTag NanoBRET 618 Ligand bound in the assay)
# T2 construct: Transfected into HEK293 cells for the NanoBRET assay; also called beta-catenin HaloTag NanoBRET construct; not shown: HaloTag
# T2 sequence (looked up): T1 sequence
# T3: full-length beta-Catenin (Uniprot ID P35222) (Homo sapiens (Human), UniProt P35222 1-781)
# T3 construct: also called bCat; B-Catenin
# T3 sequence: T1 sequence
# T4: beta-catenin in DLD1 TCF/LEF luciferase reporter cells (UniProt P35222 1-781)
# T4 sequence (looked up): T1 sequence
# T5: beta-catenin in DLD1 TCF/LEF luciferase reporter cells (UniProt P35222 1-781)
# T5 sequence (looked up): T1 sequence
# T6: B-cat-Halo (beta-catenin HaloTag NanoBRET construct expressed in HEK293 cells) (UniProt P35222 1-781)
# T6 sequence (looked up): T1 sequence
# T7: B-cat-Halo (UniProt P35222 1-781)
# T7 sequence (looked up): T1 sequence
# T8: beta-catenin in DLD1 TCF/LEF luciferase reporter cells (UniProt P35222 1-781)
# T8 sequence (looked up): T1 sequence
# T9: full-length beta-Catenin (Uniprot ID P35222) (Homo sapiens (Human), UniProt P35222 1-781)
# T9 construct: also called bCat; B-Catenin
# T9 sequence: T1 sequence
# T10: B-cat-Halo (UniProt P35222 1-781)
# T10 construct: Expressed by transfection in HEK293 cells for the NanoBRET assay; also called beta-catenin HaloTag NanoBRET construct; not shown: HaloTag
# T10 sequence (looked up): T1 sequence
# B1: I-730 (peptide)
# peptide: XDLXDEAAFNXFXQA
# modifications: not fully specified; N-terminal Ac; C-terminal NH2; PL3 at 1, B5 at 4, S8 at 11, BztA at 13; stapled PL3-B5 and B5-S8 by olefin metathesis
# notes: Stapled peptide; also called Ac-PL3-Asp-Leu-B5-Asp-Glu-Ala-Ala-Phe-Asn-S8-Phe-BztA-Gln-Ala-NH2
# B2: I-731 (peptide)
# peptide: Ac-[αAllylPro]DL[B5(17)]DEAAFN[S8]F[Bta]Q[dA]-NH2
# modifications: staple 1-4, 4-11
# notes: also called Ac-PL3-Asp-Leu-B5-Asp-Glu-Ala-Ala-Phe-Asn-S8-Phe-BztA-Gln-dAla-NH2
# B3: I-750 (peptide)
# peptide: Ac-[αAllylPro]DL[B5(4)]DEAAFN[S8]F[Bta]S-NH2
# modifications: staple 1-4, 4-11; also: olefin E/Z not assigned, earlier-eluting staple isomer
# notes: Stapled peptide; same description as I-751, earlier eluting staple isomer composition; also called Ac-PL3-Asp-Leu-B5-Asp-Glu-Ala-Ala-Phe-Asn-S8-Phe-BztA-Ser-NH2
# B4: I-563 (peptide)
# peptide: XDLXDDAAFNXFXQ
# modifications: not fully specified; N-terminal Ac; C-terminal NH2; non-natural PL3 (1), B5 (4), S8 (11), BztA (13); stapled PL3-B5 and B5-S8 by olefin metathesis
# notes: Stapled peptide composition; also called Ac-PL3-Asp-Leu-B5-Asp-Asp-Ala-Ala-Phe-Asn-S8-Phe-BztA-Gln-NH2
# B5: I-566 (peptide)
# peptide: XDVXDDAAFNXFXQ
# modifications: not fully specified; N-terminal Ac; C-terminal NH2; non-natural PL3 (1), B5 (4), S8 (11), BztA (13); stapled PL3-B5 and B5-S8 by olefin metathesis
# notes: Stapled peptide composition; also called Ac-PL3-Asp-Val-B5-Asp-Asp-Ala-Ala-Phe-Asn-S8-Phe-BztA-Gln-NH2
# B6: I-564 (peptide)
# peptide: Ac-[αAllylPro]DL[B5(5)]DDAAFN[S8]F[Bta]H-NH2
# modifications: staple 1-4, 4-11
# notes: Stapled peptide composition; also called Ac-PL3-Asp-Leu-B5-Asp-Asp-Ala-Ala-Phe-Asn-S8-Phe-BztA-His-NH2
# B7: I-567 (peptide)
# peptide: XDVXDDAAFNXFXQ
# modifications: not fully specified; N-terminal Ac; C-terminal NH2; non-natural PL3 (1), B5 (4), S8 (11), BztA (13); stapled PL3-B5 and B5-S8 by olefin metathesis
# notes: as for B5
# Tests used:
# [1] = target: T1, beta-catenin in DLD1 TCF/LEF luciferase …; assay: cell-based or functional assay
# B-cat-Halo [2] = target: T2, B-cat-Halo; assay: NanoBRET Abs IC50 in HEK293 cells; B-cat-Halo, competitor TCF4-Luc
# [3] = target: T3, full-length beta-Catenin (Uniprot ID …); assay: fluorescence polarization competition; full-length beta-catenin, competitor 5FAM-TCF4(10-53) probe
# Outline: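 Data fitted to 1:1 binding model with hill slope from duplicate reads taken after 60 minutes at 20° C. in the dark.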
# [4] = target: T4, beta-catenin in DLD1 TCF/LEF luciferase …; assay: cell-based or functional assay
# [5] = target: T5, beta-catenin in DLD1 TCF/LEF luciferase …; assay: cell-based or functional assay; remark: listed apart in the source
# [6] = target: T6, B-cat-Halo (beta-catenin HaloTag …); assay: cell-based or functional assay
# B-cat-Halo [7] = target: T7, B-cat-Halo; assay: cell-based or functional assay
# [8] = target: T8, beta-catenin in DLD1 TCF/LEF luciferase …; assay: cell-based or functional assay; remark: listed apart in the source
# [9] = target: T9, full-length beta-Catenin (Uniprot ID …); assay: competition fluorescence polarization; full-length beta-catenin, 5FAM-TCF4(10-53) probe as competitor
# Description: The plate was incubated protected from light for 60 minutes at 20° C. prior to read. Reads were performed on a CLARIOstar plate reader (BMG Labtech) in duplicate, and data were fitted to a 1:1 binding model with hill slope using an in-house script. All provided concentrations are final concentrations.
# B-cat-Halo [10] = target: T10, B-cat-Halo; assay: NanoBRET Abs IC50 in HEK293 cells; Bcat-Halo, TCF4-Luc as competitor
binder,measurement,setting,value
"Ac-[αAllylPro]D[tBuAla][B5(4)]DDAAFT[PyrS2″][Phe(2-Cl)][Bta][Thr(ol)] (staple 1-4, 4-11) [I-1245]",DLD1 4% Abs IC50,[1],4.1 µM
B1,IC50,B-cat-Halo [2],11.2 µM
same,IC50,[3],0.035 µM
B2,IC50,B-cat-Halo [2],11.6 µM
same,IC50,[3],0.034 µM
"Ac-[αAllylPro]D[tBuAla][B5(3)]D[TfeGA]AAF[hSer][PyrS2″][Phe(2-Cl)][Bta][hSer]-NH2 (staple 1-4, 4-11) [I-993]",DLD1 reporter assay Abs IC50,[4],4.4 µM
"Ac-[αAllylPro]D[tBuAla][B5(3)]D[Phe(3-COOH)][Aib]AF[Abu][PyrS2″][Phe(2-CF3)][Bta][Me2Gln]A-NH2 (staple 1-4, 4-11) [Ac-PL3-Asp-Npg-B5-Asp-3COOHF-Aib-Ala-Phe-Abu-PyrS2-2F3MeF-BztA-Me2Gln-Ala-NH2]",DLD1 4% Abs IC50,[5],6.4 µM
same,NanoBRET Abs IC50,[6],6.2 µM
"Ac-[αAllylPro]D[tBuAla][B5(3)]D[TfeGA]AAFF[PyrS2″]F[Bta]Q-NH2 (staple 1-4, 4-11) [I-988]",DLD1 reporter assay Abs IC50,[4],5.2 µM
B3,IC50,B-cat-Halo [2],7.4 µM
same,IC50,[3],0.043 µM
"Ac-[αAllylPro]D[tBuAla][B5(18)]DDAAFT[PyrS2″][Phe(2-Cl)][Bta]S-NH2 (staple 1-4, 4-11) [I-1015]",NanoBRET Abs IC50,B-cat-Halo [7],8.9 µM
same,DLD1 4% Abs IC50,[8],5.7 µM
"Ac-[αAllylPro]D[tBuAla][B5(4)]D[TfeGA]AAFT[PyrS2″][Phe(2-Cl)][Bta]-Alaol (staple 1-4, 4-11) [I-1242]",DLD1 4% Abs IC50,[1],3.8 µM
B4,IC50,[9],0.019 µM
same,IC50,B-cat-Halo [10],15.7 µM
B5,IC50,[9],0.076 µM
B6,IC50,[9],0.036 µM
same,IC50,B-cat-Halo [10],> 20 µM
B7,IC50,[9],0.037 µM

# From patent publication US20240116985A1 (published 2024)
